From publication PMC9215706 (Cell reports, 2022)

Molecular target: T1, Recombinant Ubiquitin activating enzyme E1 (human) - UBA1 (human, UniProt P22314 1-1058)
T1 sequence: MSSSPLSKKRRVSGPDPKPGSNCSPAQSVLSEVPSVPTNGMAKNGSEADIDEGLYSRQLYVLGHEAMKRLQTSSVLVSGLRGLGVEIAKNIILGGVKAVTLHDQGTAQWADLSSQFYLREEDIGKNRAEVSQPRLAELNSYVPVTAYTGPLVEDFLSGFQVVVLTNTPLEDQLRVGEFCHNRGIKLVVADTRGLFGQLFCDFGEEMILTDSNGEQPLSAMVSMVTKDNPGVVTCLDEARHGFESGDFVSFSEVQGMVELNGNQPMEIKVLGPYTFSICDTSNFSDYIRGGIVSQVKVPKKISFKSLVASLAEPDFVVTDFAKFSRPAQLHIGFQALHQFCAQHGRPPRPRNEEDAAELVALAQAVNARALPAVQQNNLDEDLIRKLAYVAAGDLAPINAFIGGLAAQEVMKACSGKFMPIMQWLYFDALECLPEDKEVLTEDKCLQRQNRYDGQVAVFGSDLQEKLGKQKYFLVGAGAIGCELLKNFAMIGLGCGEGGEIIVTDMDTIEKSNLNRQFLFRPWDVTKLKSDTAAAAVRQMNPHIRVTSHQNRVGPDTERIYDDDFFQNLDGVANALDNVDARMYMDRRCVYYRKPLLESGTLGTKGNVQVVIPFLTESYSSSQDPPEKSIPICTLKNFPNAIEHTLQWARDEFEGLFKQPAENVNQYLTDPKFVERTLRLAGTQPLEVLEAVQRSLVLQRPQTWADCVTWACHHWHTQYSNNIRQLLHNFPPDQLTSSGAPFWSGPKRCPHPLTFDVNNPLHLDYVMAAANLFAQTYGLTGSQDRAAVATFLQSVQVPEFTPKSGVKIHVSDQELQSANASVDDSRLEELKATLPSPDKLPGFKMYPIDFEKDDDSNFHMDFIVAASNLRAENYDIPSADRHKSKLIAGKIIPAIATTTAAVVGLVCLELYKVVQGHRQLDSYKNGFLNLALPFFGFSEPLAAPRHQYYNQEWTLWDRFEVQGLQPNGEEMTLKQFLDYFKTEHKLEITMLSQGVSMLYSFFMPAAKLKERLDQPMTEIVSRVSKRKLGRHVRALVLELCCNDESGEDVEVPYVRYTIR
Assay: in vitro oxidation and non-reducing immunoblot of a disulfide-linked complex

B1: recombinant Rad6 (enzyme)
chain: MSTPARRRLMRDFKRMKEDAPPGVSASPLPDNVMVWNAMIIGPADTPYEDGTFRLLLEFDEEYPNKPPHVKFLSEMFHPNVYANGEICLDILQNRWTPTYDVASILTSIQSLFNDPNPASPANVEAATLFKDHKSQYVKRVKETVEKSWEDDMDDMDDDDDDDDDDDDDEAD
binding result: binds
